According to the supplement of paper PMC10567573:

B1: CPXM2 (parent)
chain: EILGCPLPDPNNYYHRRNEMTTTD

Variants of: B1
Assay: protein stability index of a GFP-peptide fusion (GPS, HEK-293T) (PSI 1-6); higher = more stable
Conditions: c terminus: a fixed tail appended
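Also: lentivirally expressed fusions sorted by FACS into six bins by GFP to DsRed ratio, PSI derived from sequencing read proportions per bin multiplied by bin number.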

Variant	protein stability index
EILGCPLPDPNNYYHTRNEMTTTD	3.48
EILGCPLPDPNNYYHARNEMTTTD	3.84
EILGCPLPDPNNYYHCRNEMTTTD	3.15
EILGCPLPDPNNYYHNRNEMTTTD	3.82
EILGCPLPDPNNYYHWRNEMTTTD	2.76
EILGCPLPDPNNYYHRRNEMRTTD	3.05
EILGCPLPDPNNYYHRRNEMMTTD	3.23
EILGCPLPDPNNYYHRRNEMWTTD	1.65
EILGCPLPDPNNYYHRRNEMCTTD	2.92
EILGCPLCDPNNYYHRRNEMTTTD	2.4
EILGCPLKDPNNYYHRRNEMTTTD	3.58
EILGCPLYDPNNYYHRRNEMTTTD	2.71
EILGCPLPDPNNYYHRRNDMTTTD	3.62
EILGCPLPDPNNYYHRRNPMTTTD	2.86
EILGCPLPDPNNYYHRRNYMTTTD	2.6
EILGCPLPDPNNYYHRRNIMTTTD	2.19
EILGCPMPDPNNYYHRRNEMTTTD	3.59
EILGCPGPDPNNYYHRRNEMTTTD	3.48
EILGCPLPDPNNWYHRRNEMTTTD	2.9
EILGCPLPDPNNRYHRRNEMTTTD	4.04
EILGCPLPDPNNVYHRRNEMTTTD	4.03
EILGCPLPDPNNMYHRRNEMTTTD	4
EILGCPLPDPNNYKHRRNEMTTTD	3.88
EILGCPLPDPNNYEHRRNEMTTTD	4.59

Variant	protein stability index
EILGCPLPDPNNYPHRRNEMTTTD	4.41
EILGCPLPDPNNYWHRRNEMTTTD	3.75
EILGCPLPDPNNYDHRRNEMTTTD	4.31
EILGCPLPDPNNYVHRRNEMTTTD	3.81
EILGCPLPDPNNYQHRRNEMTTTD	3.96
EILGCPLPDVNNYYHRRNEMTTTD	3.46
EILGCPLPDYNNYYHRRNEMTTTD	2.91
EILGCPLPDNNNYYHRRNEMTTTD	3.37
EILGCPLPDTNNYYHRRNEMTTTD	3.6
EILGCPLPDQNNYYHRRNEMTTTD	3.4
EILGCPLPDANNYYHRRNEMTTTD	3.45
EIGGCPLPDPNNYYHRRNEMTTTD	4.45
EIAGCPLPDPNNYYHRRNEMTTTD	4.09
EIEGCPLPDPNNYYHRRNEMTTTD	4.39
EISGCPLPDPNNYYHRRNEMTTTD	4.41
EITGCPLPDPNNYYHRRNEMTTTD	3.99
EILGCPLPDPNRYYHRRNEMTTTD	3.35
EILGCPLPDPNAYYHRRNEMTTTD	3.67
EILGCPLPDPNTYYHRRNEMTTTD	3.17
EILGCPLPDPNWYYHRRNEMTTTD	2.79
EELGCPLPDPNNYYHRRNEMTTTD	4.91
EILGCPLPDPNNYYHRRNEMTITD	2.81
EILGCPLPDPNNYYHRRNEMTMTD	3.28
EILGCPLPDPNNYYHRRNEMTPTD	3.22

Variant	protein stability index
EILGCPLPDPNNYYHRSNEMTTTD	3.88
EILGCPLPDPNNYYHRYNEMTTTD	2.85
EILGCPLPDPNNYYHRINEMTTTD	3.35
EILGCPLPDPNNYYHRENEMTTTD	4.43
EILGCPLPDPNNYYHRANEMTTTD	3.78
EILGCPLPDPNNYYHRWNEMTTTD	2.63
KILGCPLPDPNNYYHRRNEMTTTD	3.18
TILGCPLPDPNNYYHRRNEMTTTD	3.69
QILGCPLPDPNNYYHRRNEMTTTD	3.02
RILGCPLPDPNNYYHRRNEMTTTD	3.59
NILGCPLPDPNNYYHRRNEMTTTD	3.42
YILGCPLPDPNNYYHRRNEMTTTD	2.29
EILGCPLPNPNNYYHRRNEMTTTD	3.18
EILGCPLPLPNNYYHRRNEMTTTD	3.05
EILGCPLPYPNNYYHRRNEMTTTD	2.75
EILGCPLPTPNNYYHRRNEMTTTD	3.25
EILGCPLPRPNNYYHRRNEMTTTD	3.34
EILGCPLPDPNNYYHRRNEMTTTT	2.82
EILGCPLPDPNNYYHRRNEMTTTN	3.07
EILGCPLPDPNNYYHRRNEMTTTL	2.46
EILGCPLPDPNNYYHRRNEMTTTY	2.29
EILGCPLPDPMNYYHRRNEMTTTD	3.21
EILGCPLPDPVNYYHRRNEMTTTD	3.38
EILGCPLPDPENYYHRRNEMTTTD	4.07

Variant	protein stability index
EILGCPLPDPCNYYHRRNEMTTTD	2.72
EILGCPLPDPNNYYHRRNEITTTD	3.69
EILGCPLPDPNNYYHRRNEVTTTD	3.7
EILGCPLPDPNNYYHRRNEFTTTD	2.98
EILGCPLPDPNNYYHRRNERTTTD	3.57
EILGYPLPDPNNYYHRRNEMTTTD	2.96
EILGFPLPDPNNYYHRRNEMTTTD	3.65
EILGLPLPDPNNYYHRRNEMTTTD	3.62
EILGAPLPDPNNYYHRRNEMTTTD	3.79
EILGKPLPDPNNYYHRRNEMTTTD	4.08
EILGCPLPDPNNYYHRRSEMTTTD	3.26
EILGCPLPDPNNYYHRRGEMTTTD	3.77
EILGCPLPDPNNYYHRRPEMTTTD	3.21
EILGCPLPDPNNYYVRRNEMTTTD	3.1
EILGCPLPDPNNYYGRRNEMTTTD	3.88
EILGCPLPDPNNYYSRRNEMTTTD	3.56
EILGCKLPDPNNYYHRRNEMTTTD	2.76
EILRCPLPDPNNYYHRRNEMTTTD	3.73
EILDCPLPDPNNYYHRRNEMTTTD	3.96
EILGCPLPDPNNYYHRRNEMTTED	4.3
EILGCPLPDPNNYYHRRNEMTTDD	3.85
EILGCPLPDPNNYYHRRNEMTTVD	2.85
